Data: US20180346602A1
Positions count from the first letter of the chain named. Values belong to the binder of their own block, whether it stands above or below them.

What was measured:
[1] = target: anti-Dig antibody (IgG1 subclass with mutations P329G/L234A/L235A) [IgG part: P01857]; experiment: sandwich ELISA assay D; tracer M1.19.31-Dig; analyte conc. not printed (row 3 of 8)
[2] = target: anti-Dig antibody (IgG1 subclass with mutations P329G/L234A/L235A) [IgG part: P01857]; experiment: sandwich ELISA assay D; tracer M1.7.10-Dig; analyte conc. not printed (row 3 of 8)
[3] = target: anti-VEGF/ANG2 antibody (IgG1 subclass with mutations P329G/L234A/L235A/I253A/H310A/H435A) [IgG part: P01857]; experiment: bridging ELISA; biotinylated and digoxigenylated anti-VEGF/ANG2 antibody bridged by M1.3.17 at 7.8125 ng/mL
[4] = target: anti-VEGF/ANG2 antibody (IgG1 subclass with mutations P329G/L234A/L235A/I253A/H310A/H435A) [IgG part: P01857]; experiment: bridging ELISA; biotinylated and digoxigenylated anti-VEGF/ANG2 antibody bridged by M1.3.17 at 31.25 ng/mL
[5] = target: anti-Dig antibody (IgG1 subclass with mutations P329G/L234A/L235A) [IgG part: P01857]; experiment: sandwich ELISA assay D; tracer M1.7.10-Dig; analyte conc. not printed (row 5 of 8)
[6] = target: anti-VEGF/ANG2 antibody (IgG1 subclass with mutations P329G/L234A/L235A/I253A/H310A/H435A) [IgG part: P01857]; experiment: sandwich ELISA in serum; capture M1.3.17, tracer M1.7.24; anti-VEGF/ANG2 antibody 1250 ng/mL
[7] = target: anti-VEGF/ANG2 antibody (IgG1 subclass with mutations P329G/L234A/L235A/I253A/H310A/H435A) (human) [IgG part: P01857]; experiment: sandwich ELISA in serum; M1.3.17-Bi capture on SA plate; tracer anti-human kappa M1.7.10-Dig; analyte 5 ng/mL
[8] = target: anti-Dig antibody (IgG1 subclass with mutations P329G/L234A/L235A) [IgG part: P01857]; experiment: sandwich ELISA assay D; tracer M1.19.31-Dig; analyte conc. not printed (row 4 of 8)
[9] = target: anti-VEGF/ANG2 antibody (IgG1 subclass with mutations P329G/L234A/L235A/I253A/H310A/H435A) (human) [IgG part: P01857]; experiment: sandwich ELISA in serum; M1.3.17-Bi capture on SA plate; tracer anti-human kappa M1.7.10-Dig; analyte 2.5 ng/mL
[10] = target: anti-VEGF/ANG2 antibody (IgG1 subclass with mutations P329G/L234A/L235A/I253A/H310A/H435A) [IgG part: P01857]; experiment: sandwich ELISA assay E; tracer M1.7.10-Dig; analyte 1) at 12.5 ng/mL
[11] = target: anti-VEGF/ANG2 antibody (IgG1 subclass with mutations P329G/L234A/L235A/I253A/H310A/H435A) (human) [IgG part: P01857]; experiment: sandwich ELISA in serum; M1.3.17-Bi capture on SA plate; tracer anti-human kappa M1.7.10-Dig; analyte 0.625 ng/mL
[12] = target: anti-VEGF/ANG2 antibody (IgG1 subclass with mutations P329G/L234A/L235A/I253A/H310A/H435A) [IgG part: P01857]; experiment: sandwich ELISA in serum; capture M1.3.17, tracer M1.7.24; anti-VEGF/ANG2 antibody 0 ng/mL (blank)
[13] = target: anti-VEGF/ANG2 antibody (IgG1 subclass with mutations P329G/L234A/L235A) [IgG part: P01857]; experiment: sandwich ELISA assay E; tracer M1.7.10-Dig; analyte 2) at 12.5 ng/mL
target antibodies [14] = experiment: depletion of target antibody from sample; concentration before depletion 10.00 µg/mL
[15] = target: anti-VEGF/ANG2 antibody (IgG1 subclass with mutations P329G/L234A/L235A/I253A/H310A/H435A) [IgG part: P01857]; experiment: sandwich ELISA in serum; capture M1.3.17, tracer M1.7.24; anti-VEGF/ANG2 antibody 2500 ng/mL
[16] = target: anti-VEGF/ANG2 antibody (IgG1 subclass with mutations P329G/L234A/L235A/I253A/H310A/H435A) [IgG part: P01857]; experiment: bridging ELISA; biotinylated and digoxigenylated anti-VEGF/ANG2 antibody bridged by M1.3.17 at 0 ng/mL (blank)
target antibodies [17] = experiment: depletion of target antibody from sample; concentration before depletion 30.00 µg/mL
[18] = target: anti-VEGF/ANG2 antibody (IgG1 subclass with mutations P329G/L234A/L235A/I253A/H310A/H435A) [IgG part: P01857]; experiment: sandwich ELISA in serum; capture M1.7.10-Bi, tracer M1.7.24-Dig; anti-VEGF/ANG2 antibody 0.01953125 ng/mL
[19] = target: anti-VEGF/ANG2 antibody (wild-type IgG1 subclass) (human) [IgG part: P01857]; experiment: sandwich ELISA assay B; capture on SA plate; tracer M1.7.10-Dig; analyte 2 ng/mL
[20] = target: anti-VEGF/ANG2 antibody (wild-type IgG1 subclass) (human) [IgG part: P01857]; experiment: sandwich ELISA assay C; capture on SA plate; tracer FcγRI-Dig; analyte 50 ng/mL
[21] = target: anti-VEGF/ANG2 antibody (IgG1 subclass with mutations P329G/L234A/L235A/I253A/H310A/H435A) [IgG part: P01857]; experiment: sandwich ELISA in serum; capture M1.7.10-Bi, tracer M1.7.24-Dig; anti-VEGF/ANG2 antibody 0.625 ng/mL
[22] = target: cytokine (IL-2) antibody conjugate with the mutations P329G, L234A, L235A, I253A, H310A, and H435A; experiment: sandwich ELISA in serum; capture anti-IL2 antibody, tracer M1.7.24; conjugate 625 ng/mL

signal 10% cynomolgus serum [OD405 nm] [1]: 0.357 OD405 nm
signal 10% human serum [OD405 nm] [1]: 1.84 OD405 nm
signal buffer [OD405 nm] [1]: 0.04 OD405 nm
signal 10% cynomolgus serum [OD405 nm] [2]: 0.485 OD405 nm
signal 10% human serum [OD405 nm] [2]: 2.51 OD405 nm
signal buffer [OD405 nm] [2]: 0.037 OD405 nm
signal [OD405 nm] [3]: 0.047 OD405 nm
signal [OD405 nm] [4]: 0.054 OD405 nm
signal 10% cynomolgus serum [OD405 nm] [5]: 0.096 OD405 nm
signal 10% human serum [OD405 nm] [5]: 2.49 OD405 nm
signal buffer [OD405 nm] [5]: 0.031 OD405 nm
signal [OD405 nm] [6]: 1.88 OD405 nm
signal [OD405 nm] [7]: 1.6 OD405 nm
signal 10% cynomolgus serum [OD405 nm] [8]: 0.162 OD405 nm
signal 10% human serum [OD405 nm] [8]: 1.73 OD405 nm
signal buffer [OD405 nm] [8]: 0.037 OD405 nm
signal [OD405 nm] [9]: 0.987 OD405 nm
signal [OD405 nm] [10]: 1.09 OD405 nm
signal [OD405 nm] [11]: 0.314 OD405 nm
signal [OD405 nm] [12]: 0.175 OD405 nm
signal [OD405 nm] [13]: 0.96 OD405 nm
concentration after depletion (target antibodies [14]): 0.0017 µg/mL
recovery [%] (target antibodies [14]): 0.017%
signal [OD405 nm] [15]: 2.77 OD405 nm
signal [OD405 nm] [16]: 0.046 OD405 nm
concentration after depletion (target antibodies [17]): 0.008 µg/mL
recovery [%] (target antibodies [17]): 0.027%
B1: anti-variant (human) Fc-region antibody M1.3.17 (antibody, V domains shown)
VH: EVKLLESGGGLVQPGGSLKLSCAASGIDFRRYWMNWVRQAPGKGLEWIGEIDPDSSTINYTPSLKDKFIISRDNAKNTMYLQMRKVRSEDTALYYCARPYDYGAWFAYWGQGTLVTVSA
VL: QAVVTQESALTTSPGETVTLTCRSTTGAVTTSNYANWVQEKPDHLFTGLIGGTNKRAPGVPARFSGSLIGDKAALTITGAQTEDEAIYFCALWYSDHWVFGGGTKLTVL

signal [OD405 nm] [18]: 0.057 OD405 nm
signal 10% cynomolgus serum [OD405 nm] [1]: 0.438 OD405 nm
signal 10% human serum [OD405 nm] [1]: 1.6 OD405 nm
signal buffer [OD405 nm] [1]: 0.045 OD405 nm
signal 10% cynomolgus serum [OD405 nm] [2]: 0.575 OD405 nm
signal 10% human serum [OD405 nm] [2]: 2.48 OD405 nm
signal buffer [OD405 nm] [2]: 0.039 OD405 nm
signal 10% cynomolgus serum [OD405 nm] [5]: 0.094 OD405 nm
signal 10% human serum [OD405 nm] [5]: 2.41 OD405 nm
signal buffer [OD405 nm] [5]: 0.031 OD405 nm
signal 10% cynomolgus serum [OD405 nm] [8]: 0.173 OD405 nm
signal 10% human serum [OD405 nm] [8]: 1.43 OD405 nm
signal buffer [OD405 nm] [8]: 0.037 OD405 nm
signal [OD405 nm] [10]: 1.06 OD405 nm
signal [OD405 nm] [19]: 0.034 OD405 nm
signal [OD405 nm] [20]: 0.066 OD405 nm
signal [OD405 nm] [13]: 0.884 OD405 nm
signal [OD405 nm] [21]: 0.468 OD405 nm
signal [OD405 nm] [22]: 0.811 OD405 nm
B2: anti-variant (human) Fc-region antibody M1.7.24 (antibody, V domains shown)
VH: B1 VH with I27F, R30S, D52T, M79L, R84I, A97V, Y108S
VL: B1 VL with T25S, D96N

signal [OD405 nm] [19]: 0.036 OD405 nm
signal [OD405 nm] [20]: 0.067 OD405 nm
concentration after depletion (target antibodies [14]): 0.0005 µg/mL
recovery [%] (target antibodies [14]): 0.005%
concentration after depletion (target antibodies [17]): 0.0054 µg/mL
recovery [%] (target antibodies [17]): 0.018%
B3: anti-AAA variant Fc-region antibody M1.6.22 (antibody, V domains shown)
VH: EVQLVESGGDLVKPGGSLKLSCAASGFTFSSYGMSWVRQTPDKRLEWVATISSGGSYIYYPDSVKGRFTISRDNAKNTLYLQMSSLKSEDTAMYYCARLGMITTGYAMDYWGQGTSVTVSS
VL: DVLMTQTPLSLPVSLGDQASISCRSSQTIVHSTGHTYLEWFLQKPGQSPKLLIYKVSNRFSGVPDRFSGSGSGTDFTLKISRVEAEDLGVYYCFQGSHVPYTFGGGTKLEIK
